The labels stand for the following.
B1: C1067 (antibody, V domains shown)
VH: QVQLVQSGAEVKKPGASVKVSCKASRDTFTTHYIHWVRQAPGQGLEWMGIINPSGGSISYAQKFQGRVTMTRDTSTSTVYMELSSLRSEDTAVYYCARGGIVPHLSNWFDPWGQGTLVTVSS
VL: EIVLTQSPGTLSLSPGERATLSCRASQSVSSSYLAWYQQKPGQAPRLLIYGASSRATGIPDRFTGSGSGTDFTLTISRLEPEDFAVYYCQQYGRSSGFTFGPGTKVDIK
B2: C1068 (antibody, V domains shown)
VH: QVQLVESGGGVVQPGRSLRLSCAASGFTFSTFAMHWVRQAPGKGLEWVAVTSYDGSNKYYADSVKGRFTISRDNSKNTLYLQMNSLRAEDTAVYYCARGLLWFGESEYFQHWGQGTLVTVSS
VL: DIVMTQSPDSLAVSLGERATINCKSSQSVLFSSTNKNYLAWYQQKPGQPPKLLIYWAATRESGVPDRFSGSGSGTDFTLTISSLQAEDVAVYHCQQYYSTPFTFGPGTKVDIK
B3: C1065 (antibody, V domains shown)
VH: EVQLVESGGGLIQPGGSLRLSCAASGFTVSRNYMSWVRQAPGKGLEWVSVIYSGGSTFYADSVKGRFTISRDNSKNTLYLQMNSLRAEDTAVYYCARGLPTGEGWNYFDYWGQGTLVTVSS
VL: QSALTQPASVSGSPGQSITISCTGTSSDIGGYHYVSWYQQHPGKAPKLMIYDVSNRPSGISNRFSGSKSGNTASLTISGLQAEDEADYYCSSYASSSVIFGGGTKLTVL
B4: C1066 (antibody, V domains shown)
VH: EVQLVESGGGLVQPGRSLRLSCAASGFMFDDYAMHWVRQAPGKGLEWVSGINWSSADIGYVDSVKGRFTISRDNAKNSLYLQMNSLRTEDTAFYYCAKGWFGELLGGSDSWGQGTLVTVSS
VL: QLVLTQSSSASASLGSSVKLTCTLNSGHSSYIIAWHQQQPGKAPRYLMKLEGSGSYNKGSGVPDRFSGSSSGADRYLTISNLQFEDEADYYCATWDSNTQVFGGGTKLTVL
B5: C1058 (antibody, V domains shown)
VH: EVQLVESGGGLVQPGGSLRLSCAASGIIVSSNYMNWVRQVPGKGLEWVSVLYSGGSTFYADSVRGRFTISRDNSKNTLFLQMNSLRPEDTAVYYCARDFREGAFDIWGQGTMVTV
VL: DIQLTQSPSFLSASVGDRVTITCRASQGISSYLAWYQQKPGKAPNLLIYAASTLQSGVPSRFSGSGSGTDFTLTISSLQPEDFATYYCQQLNSYSPLFGQGTRLEIK
B6: C1059 (antibody, V domains shown)
VH: EVQLVESGGGLVQPGGSLRLSCAASGVTVSYNYMHWVRQAPGKGLEWVSVFFPGGSIFYADSVKGRFSISRDNSHNTLYLQMNNLRPEDTAVYYCARDFREGAIDLWGQGTMVTVSS
VL: DIQLTQSPSFLSASVEDRVTITCRASQGISSYLAWYQQKPGKAPKLLIYGASTLQSGVPSRFSGSGSGTEFTLTISSLQPEDSATYYCQQLNSYPPLFGQGTRLEIK
B7: C1030 (antibody, V domains shown)
VH: EVQLVESGGGLVQPGGSLRLSCEASGVIVSSNYMNWVRQAPGKGPEWVSVLYAGGSTFYADSVKGRFTISRDDSKNTLFLQMNNLRAEDTAVYFCARDLIAFGMDVWGQGTTVTVSS
VL: DIQLTQSPSFLSASVGDRVTITCRASQGINSDLAWYQQKPGKAPKLLIYGASTLQSGVPSRFSGSGSGTEFSLTVSSLQPEDFATYYCQQLNSYRRFGGGTKVEIK
B8: C1050 (antibody, V domains shown)
VH: EVQLVESGGGLVQPGRSLRLSCAASGFTFDDYGMHWVRQAPGKGLEWVSGISWNGDSIGYADSVKGRFTISRDNAKTSLYLQMNRLRAEDTALYYCAKAASRSTRIGGAFDIWGQGTMVTVSS
VL: QSALTQPASVSGSPGQSITISCTGTSSDVGGYNLVSWYQQHPGKAPKLMIYEGSKRPSGVSNRFSGSKSGNTASLTISGLQAEDEADYYCCSYAYSFTNVFGTGTKVTV
B9: C1051 (antibody, V domains shown)
VH: EVQLVESGGGLVQPGRSLRLSCVASGFTFDDYGLHWVRQAPGKGLEWVSGISWNSDSIGYADSVKGRFAISRDNARTSLYLQMNRLRAEDTALYYCAKAASRSTRIGGAFDIWGQGTMVTVSS
VL: QSALTQPASVSGSPGQSITISCTGTSSDVGGYNLVSWYQQYPGKAPKLMIYEDSKRPSGVSHRFSGSKSGNTASLTISGLQAEDEADYYCCSYAFSFTNVFGTGTKVTV
B10: C1047 (antibody, V domains shown)
VH: EVQLVQSGAEVKKPGESLKISCKGSGYSFISYWIVWVRQMPGKGLEWIGIIYPGDSDTIYSPSFQGQVTLSADKSISTAYLQWSSLKASDTAIYYCAKMVTSGTSYYETRGYASSGPFDNWGQGTLVTVSS
VL: DIQLTQSPSSLSASVGDRVTITCRASQGISSALAWYQQKPGKAPKLLIYDASSLESGVPSRFSGSGSGTDFTLTISSLQPEDFATYYCQQSDNFGPGTKVDI
B11: C1046 (antibody, V domains shown)
VH: EVQLVQSGAEVKKPGESLKISCKGSGYSFTSYWIGWVRQMPGKGLEWMGIIYPGDSDTRYSPSFQGQVTISADKSISTAYLQWSSLKASDTAMYYCARMVTSGTYYYDNSGYSSSGPFDYWGQGTLVTVSS
VL: DIQLTQSPSSLSASVGDRVTITCRASQGISSALAWYQQKPGKAPKLLIYDASSLESGVPSRFSGSGSGTDFTLTISSLQPEDFATYYCQQFNNFGPGTKVDIK
B12: C1057 (antibody, V domains shown)
VH: QVQLVQSGAEVKKPGSSVKVSCKASGGTFTTYIISWVRQAPGQGLEWMGGISPMLGTANYAQKFQGGVTITADESTTTAYMEMSGLRSEDTAVYYCARAHMYCSDGSCYRQSGYFDSWGQGTLVTVSS
VL: QSALTQPRSVSGSPGQSVTITCTGTSSNVGGYKYVSWFQQHPGKAPKFLIYDVSERSSGVPDRFSGSKSGNTASLTISGLQAEDEADYYCCSYAGKYTVVFGGGTRLTV
B13: C1049 (antibody, V domains shown)
VH: EVQLVQSGAEVKKPGESLKISCKSSGYSFISHWIGWVRQMPGKGLEWMGIIWPGDSDTRYSPSFQGQVTISVDKSITTVYLQWSSLKAADTAMYYCARRGSSWEVDYWGQGTLVTVSS
VL: not shown
B14: C1043 (antibody, V domains shown)
VH: EVQLVESGGGLVQPGRSLRLSCAASGFIFDNYAMHWVRQAPGKGLEWVSGISWNSDSIGYADSVKGRFTISRDNAKNSLYLQMSSLRAEDTALYYCAKDLLGNYYYYTLDVWGQGTTVTVSS
VL: QSALTQPASVSGSPGQSITISCTGTSSDIGGNNYVSWYQQHPGKAPRLMIFDVSYRPSGVSNRFSGSKSGNTASLTISGLQAEDEADYYCISYTTSSTLGVFGGGTKLTVL
B15: C1053 (antibody, V domains shown)
VH: EVQLLESGGGLVQPGGSLRLSCAASGFTFSSYAMNWVRQAPGKGLEWVSAISGSGGGTYYADSVKGRFTISRDNSKNTLYLQMDSLRAEDTAVYYCAKDVPIEQQLVPTFDYWGQGALVTVSS
VL: DIQMTQSPSSLSASVGDRVTITCRASQSISRYLNWYQQKPGKAPKLLIYGASSLQSGVPSRFSGSGSGTDFTLTISSLQPEDFATYWCQQSYSTLSITFGQGTRLEIK
B16: C1054 (antibody, V domains shown)
VH: EVQLLESGGGLVQPGGSLRLSCVVSGFTFSSYAMNWVRQAPGKGLEWVSVIGGSGDGRYYADSVKGRFTISRDNSKNTLYLQMNSLRGDDTAVYYCARDVPVEQQLVPTFDYWGQGTLVTVSS
VL: DIQMTQSPSSLSASVGDRVTITCRASQSISRYLNWYQQKPGKAPKLLIYAASSLQSGVPSRFSGSGSGTEFTLTISSLQPEDFATYYCQQSYSTLSITFGQGTRLEIK
B17: C1061 (antibody, V domains shown)
VH: EVQLVESGGGLVQPGGSLRLSCAASGFTFSRYDMHWVRQGTGKGLEWVSAIGTSGDTYYPDSVKGRFTISRENAKNSLYLQMNSLRAGDTAVYYCARGGLQTTTWLFDYWGQGTLVTVSS
VL: DIQMTQSPSSLSASVGDRVTITCRASQSISRYLNWYQQKPGKAPKLLIYAASSLQSGVPSRFSGSGAGTDFTLTISSLQPEDFAIYYCQQSYSNPPITFGQGTRLEIK
B18: C1062 (antibody, V domains shown)
VH: EVQLVESGGGLVQPGGSLRLSCAASGFTFSNYDMHWVRQTTGKGLEWVSAIGTAGDTYYPGSVKGRFTMSRENAKNSLYLQMNSLRAGDTAVYYCARGGLQTTTWLFDNWGQGTLVTVSS
VL: DIQMTQSPSSLSASVGDRVTITCRASQTISRYLNWYQQKPGKAPKLLIYAASSLQSGVPSRFSGSGSGTDFTLTISSLQPEDFATYYCQQSYTMPPITFGQGTRLEIK
B19: C1052 (antibody, V domains shown)
VH: QVQLVQSGAEVKKPGASVKVSCKVSGYTLSELSMHWVRQAPGEGLEWLGGFDPEDGETINAQKFQGRVTMTEDRSTDTAYMELSSLRSEDTAVYYCATRGRYCSSGNCYYHHWGQGTLVTVSS
VL: DIQMTQSPSTLSASVGDRVIITCRASQNIHNWLAWYQQKPGKAPKLLIYKASSLESGVPSRFSGSGSGTEFTLTISSLQPDDFATYFCQQYHSYSWTFGQGTKVEIK
B20: C1048 (antibody, V domains shown)
VH: EVQLVQSGAEVKKPGESLKISCKVSGYSFISHWIGWVRQMPGKGLEWMGIIYPGDSDTRYSPSFQGQVTISADKSISTAYLQWSSLKASDTAMYYCARRGASWELDYWGQGTLVTV
VL: QSVLTQPPSASGTPGQRVTISCSGSSSNIGSNPVSWYQQLPGPAPQLLIYGNDQRPSGVPDRFSGSKSGTSASLAISGLQSEDEADYYCAAWDDSLNGYVFGTGTKVTVL
B21: C1055 (antibody, V domains shown)
VH: QVQLVESGGGVVQPGRSLRLSCAASGFTFSTYGMNWVRQAPGKGLEWVALILYDGSDKYYADSVKSRFTISRDNSRNTLYLQMTSLRAEDTAVYYCAKALSSTYYYDASGPDAFDIWGQGTMVTVSS
VL: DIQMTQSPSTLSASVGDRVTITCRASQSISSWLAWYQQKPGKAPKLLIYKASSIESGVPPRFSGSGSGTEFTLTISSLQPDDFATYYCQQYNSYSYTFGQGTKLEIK
B22: C1040 (antibody, V domains shown)
VH: QVQLVESGGGVVQPGRSLRLSCAASGFSFINYNMHWVRQAPGKGLEWVAVIWYDGSNKYYADSVKGRFTISRDNSKNTLYLQMNSLRVEDTAVYYCARDPAITEAEIDYWGQGTLVTVSS
VL: DVVMTQSPLSLPVTLGQAASISCRSSQSLVHSDGNTYLNWFQQRPGQSPRRLIYRVSNRDSGVPDRFSASGSGTDFTLKISRVEAEDVGVYYCMQGTHWPWTFGQGTKVEIK

One assay has as its target T1, SARS-COV-2 RBD (SARS-COV-2, UniProt P0DTC2 319-539).
T1 construct: also called WT RBD
The assay is described as follows: ELISA, RBD coated on plate. On the technique in general: In an ELISA, binding on a coated surface is turned into a signal by an enzyme label.
A word on the EC50: it is the concentration needed to bring the measured effect to its halfway point. A lower EC50 goes with an effect from little substance. For B1, the EC50 stood at 2.93 ng/mL.

As for B2, a half-maximal response (EC50) required 2.48 ng/mL. B3: the EC50 was 3.52 ng/mL. Consider B4, for which the concentration for a half-maximal effect (EC50) turned out to be 3.01 ng/mL.

A further assay concerns the target T2, SARS-COV-2 RBD (SARS-COV-2, UniProt P0DTC2 319-539).
T2 construct: also called WT RBD
The assay is described as follows: ELISA, RBD coated on plate.
The molecule B5 registered an EC50 of 2.13 ng/mL.

B6: the EC50 worked out at 2.17 ng/mL. Still for that read-out and setting: to B7 belongs 2.78 ng/mL. The same measure, in the same setting: to B8 belongs 2.78 ng/mL; to B9, 1.4 ng/mL. The same measure, in the same setting: to B10 belongs 2.46 ng/mL; to B11, 3.8 ng/mL. In the case of B12, the 50% effective concentration (EC50) was found to be 2.17 ng/mL. On the same count and under the same terms, under B13 stands 2.81 ng/mL; under B14, 2.77 ng/mL. Consider B15, for which the EC50 was determined as 4.13 ng/mL.

Turning to B16, the concentration for a half-maximal effect (EC50) amounted to 1.84 ng/mL.

As for B17, the EC50 amounted to 2.26 ng/mL.

In turn, B18 showed a 50% effective concentration (EC50) of 2.61 ng/mL. This EC50 and that of the molecule before are within 1.5-fold of each other. B19: the EC50 amounted to 2.64 ng/mL. Still for that read-out and setting: to B20 belongs 2.41 ng/mL; to B21, 2.71 ng/mL; to B22, 2.08 ng/mL.
